# Measured values reported in patent US20220380456A1 (UNITED KINGDOM RESEARCH AND INNOVATION, published 2022).
# T1: MSP1E3D1 (human Apo A-I derived, engineered)
# T1 construct: also called MSP1E1D3 MSP variant
# T1 chain: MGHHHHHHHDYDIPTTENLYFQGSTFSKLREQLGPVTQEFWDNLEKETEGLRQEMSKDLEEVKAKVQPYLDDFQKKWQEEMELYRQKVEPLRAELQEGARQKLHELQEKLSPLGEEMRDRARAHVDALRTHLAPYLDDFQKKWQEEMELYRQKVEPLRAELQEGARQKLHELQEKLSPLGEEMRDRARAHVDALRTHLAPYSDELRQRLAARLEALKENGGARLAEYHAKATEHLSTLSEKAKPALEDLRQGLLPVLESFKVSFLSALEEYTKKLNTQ
# T2: His6-TEV-MSP1D1 (CA15914) (human Apo A-I derived, engineered, biotinylated with EZ-link NHS-Biotin for the BLI experiment only)
# T2 construct: Membrane scaffold protein; The entry holds the 6xHis tag, the TEV cleavage site and MSP1D1; Tested in Apo-state (lipid free) and in Nanodisc-state (POPC nanodisc, two MSP1D1 per nanodisc)
# T2 chain: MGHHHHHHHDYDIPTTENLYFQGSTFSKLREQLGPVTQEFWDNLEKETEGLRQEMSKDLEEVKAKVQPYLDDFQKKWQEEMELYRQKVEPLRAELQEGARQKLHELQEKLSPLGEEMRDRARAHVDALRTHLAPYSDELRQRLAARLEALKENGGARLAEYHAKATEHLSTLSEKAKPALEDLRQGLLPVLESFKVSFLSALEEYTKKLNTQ
# B1: MbNbF3^c7HopQ MegaBody (CA15192) (other)
# chain: QVQLVESGGGLVQTKTTTSVIDTTNDAQNLLTQAQTIVNTLKDYCPILIAKSSSSNGGTNNANTPSWQTAGGGKNSCATFGAEFSAASDMINNAQKIVQETQQLSANQPKNITQPHNLNLNSPSSLTALAQKMLKNAQSQAEILKLANQVESDFNKLSSGHLKDYIGKCDASAISSANMTMQNQKNNWGNGCAGVEETQSLLKTSAADFNNQTPQINQAQNLANTLIQELGNNTYEQLSRLLTNDNGTNSKTSAQAINQAVNNLNERAKTLAGGTTNSPAYQATLLALRSVLGLWNSMGYAVICGGYTKSPGENNQKDFHYTDENGNGTTINCGGSTNSNGTHSYNGTNTLKADKNVSLSIEQYEKIHEAYQILSKALKQAGLAPLNSKGEKLEAHVTTSKYGSLRLSCAASGSGFGPNVMGWYRQAPGKRRELVATINRIGNINYGDSVKGRFTLSREIAVNTVYLQMNSLKPEDAANYYCYAAKYGVDYWGKGTQVTVSSHHHHHHEPEA
# notes: MegaBody: c7HopQ scaffold inserted in the first β-turn of Nanobody MP1521_F3; Entry includes 6xHis and EPEA tags; also called MbF3^c7HopQ MegaBody
# B2: MegaBody MbNb25^c7HopQ against GABAAR-β3 (other)
# chain: QVQLVESGGGLVQTKTTTSVIDTTNDAQNLLTQAQTIVNTLKDYCPILIAKSSSSNGGTNNANTPSWQTAGGGKNSCATFGAEFSAASDMINNAQKIVQETQQLSANQPKNITQPHNLNLNSPSSLTALAQKMLKNAQSQAEILKLANQVESDFNKLSSGHLKDYIGKCDASAISSANMTMQNQKNNWGNGCAGVEETQSLLKTSAADFNNQTPQINQAQNLANTLIQELGNNTYEQLSRLLTNDNGTNSKTSAQAINQAVNNLNERAKTLAGGTTNSPAYQATLLALRSVLGLWNSMGYAVICGGYTKSPGENNQKDFHYTDENGNGTTINCGGSTNSNGTHSYNGTNTLKADKNVSLSIEQYEKIHEAYQILSKALKQAGLAPLNSKGEKLEAHVTTSKYGSLRLSCAASGHTFNYPIMGWFRQAPGKEREFVGAISWSGGSTSYADSVKDRFTISRDNAKNTVYLEMNNLKPEDTAVYYCAAKGRYSGGLYYPTNYDYWGQGTQVTVSSHHHHHHEPEA
# notes: MegaBody derived from Nb25 with the c7HopQ scaffold
# Columns and labels:
# [1] = biological target: T1, MSP1E3D1; assay: ELISA on coated MSP variants, n=3
# [2] = biological target: T2, His6-TEV-MSP1D1 (CA15914); assay: BLI (OctetRED96), biotinylated MSP1D1 (Apo-state) on streptavidin sensors, 1:2 binding model, 30 °C; biotinylated Apo-state MSP1D1 on the SA sensor; 30 C; 1:2 binding model
# [3] = biological target: T2, His6-TEV-MSP1D1 (CA15914); assay: ELISA, purified MegaBody on coated MSP (Apo- or Nanodisc-state) vs non-coated wells, A405
# [4] = biological target: T3, His6-TEV-MSP2N2 (CA15915) (human Apo A-I derived, engineered, UniProt P02647 79-267, limits assumed); assay: as above
# T3 construct: Membrane scaffold protein; The entry holds the 6xHis tag, the TEV cleavage site and MSP2N2; Tested in Apo-state, in Nanodisc-state, and as the belt of nanodiscs loaded with GABAAR-β3
# [5] = biological target: T2, His6-TEV-MSP1D1 (CA15914); assay: BLI (OctetRED96), biotinylated Apo MSP1D1 on streptavidin sensors, 1:2 binding model
# [6] = biological target: T2, His6-TEV-MSP1D1 (CA15914); assay: ELISA, purified MegaBody 200 nM on coated MSP (1 µg/mL in 100 µL, Apo- and Nanodisc-state), EPEA-tag detection, OD405 after 1 h
# [7] = biological target: T3, His6-TEV-MSP2N2 (CA15915); assay: as above
Binder,binding result [1],Kd [2],fold ELISA signal over no MSP [3],fold ELISA signal over no MSP [4],koff [5],kon [5],binding result [6],binding result [7]
B1,binds,23.5 nM,≥ 4 fold,≥ 4 fold,0.00103 s⁻¹,44000 M⁻¹ s⁻¹,,
B2,no binding,,,,,,no binding (tested: 200 nM),no binding (tested: 200 nM)
